Where two headings read alike, the source gives them in different places.
B1: BdhA: heat-stable, NADPH- and iron-dependent alcohol dehydrogenase cloned from Thermoanaerobacter pseudethanolicus 39E (SEQ ID NO: 2) (protein, listed as Thermoanaerobacter pseudethanolicus)
chain: MMKFEFYNPTRLIFGAGSLGQLGKVVNQYGKKALLVIGGGSVKKSGAFDRAVASLKAAGVLVVEFSGVEPNPRLSTVVRASELAKKEACDVVIGMGGGSVMDASKVIAASVLYEGDPKDMLVRAGKAPRLPERALPIITVPTLAATGSEMNNGAVITIDDEGEKLKTFVQAEVLYPRVAVVDPELTMTVPKNHTAFGVCDIITHVTEGYFNGIDGTPLQDRFAEGVILTVLEWGPKAVSDGSDLEARTQVQWASIVALNGWVQVGTNGAYPVHMIEHTLSALYDIPHGAGLAVVNPAWMRFAARFRPERFAQFAQRIFGLTATGKDTLSLAMEGIDKFEEFLRSIGCPTRLSELGIGEITEEMLFRYAEETLKVLQDEEGRLPGRPSLRKEDIVEILRMAM

Assays:
[1] = system: Thermoanaerobacter pseudethanolicus 39E (Teth39E); test: Growth of Teth39E with furan aldehydes (optical density at 600 nm); type: cell-based; settings: for specific growth rate: 65° C.; for IC50: Thermoanaerobacter pseudethanolicus, read-out: furan aldehyde concentration which resulted in 50% inhibition of growth (IC50)
Experimental: Teth39E (DSMZ 2355) was purchased from Deutsche Sammlung von Mikroorganismen and Zellkulturen GmbH (DSMZ). Anaerobic growth medium was prepared anaerobically by a modified Hungate technique and consisted of 4.5 mM KCl, 4.7 mM NH4Cl, 2.5 mM MgSO4.7H2O, 1.0 mM NaCl, 0.7 mM CaCl2.2H2O, […] resazurin, 2.8 mM cysteine-HCl, 6.0 mM NaHCO3, 1 mM potassium phosphate buffer (pH 6.8), 10 mM 3-(N-morpholino)-propanesulfonic acid (pH 6.8), 1× Wolfe's trace minerals, 1× Wolfe's vitamin supplement, 0.1% (w/v) yeast extract, and 40 mM glucose [Miller and Wolin (1974) Appl. Microbiol. 27:985-987; Wolin et al. (1963) J. Biol. Chem. 238:2882-2886]. Furan aldehydes were added from degassed concentrated stock solutions. Cultures were grown at 65° C. from a 1% inoculum in Balch tubes (10 mL) or 125 mL serum bottles (50 mL) Cell growth was monitored by optical density at 600 nm, either directly in the Balch tube using a Spectronic 200 spectrophotometer (Thermo Fisher Scientific, Waltham, Mass.) or as 200 μL samples transferred to a 96-well plate and read on a Synergy Mx plate reader (BioTek, Winooski, Vt.). All growth experiments were performed in triplicate.
Lower concentrations of furfural (10 and 20 mM) and 5-hydroxymethylfurfural (10 mM) stimulated growth of Teth39E, with increased cell yields after 12 h for both (see FIGS. 1A and 1B). […] The IC50 for 5-HMF was between 20 and 30 mM after both 12 and 24 h.

[2] = system: protein encoded by the Teth39_1597 locus (bdhA); test: Proteome comparison of Teth39E grown in the presence or absence of furfural; type: cell-based, Thermoanaerobacter pseudethanolicus 39E; settings: Teth39E grown in the presence of 15 mM furfural
Experimental: To identify the enzymes responsible for furfural and 5-HMF conversion, the proteomes were compared for strain Teth39E grown in the presence or absence of 15 mM furfural.

BdhA (Teth39_1597) [3] = test: Optimal temperature and pH of purified BdhA enzyme (butyraldehyde, NADPH); type: biochemical, Thermoanaerobacter pseudethanolicus 39E
Experimental: The optimal temperature for BdhA activity was determined from purified enzyme as follows. A 1 liter culture of E. coli BL21 (DE3) harboring the pET30a-BdhA expression construct (see FIG. 6A) was grown to mid-log phase and induced with 0.4 mM IPTG and allowed to incubate for 16 h at 30° C. with shaking at 250 rpm. The induced cells were harvested via centrifugation at 5,000×g for 20 min at 4° C. and washed 3 times with 40 mL ice-cold phosphate buffered saline (PBS) at pH 7.2 and placed on ice. The cell pellet was resuspended in binding buffer (20 mM sodium phosphate, 500 mM NaCl, 20-40 mM imidazole, pH 7.4) containing 0.2 mg/mL lysozyme, 20 μg/mL DNAse, 1 mM MgCl2, 1 mM PMSF and stirred for 30 min at room temperature. The cells were then subjected to 5×2 min rounds of sonication (Branson Sonifier 450 with microtip, duty cycle at 30%) while kept in an ice water bath. The lysate was centrifuged at 7,500×g for 20 min at 4° C. and the supernatant was transferred to a new 50 mL conical tube. […] For determining the optimal temperature for BdhA, 1 mL assays containing 100 mM phosphate buffer (pH 7.5), 20 mM butyraldehyde, and 0.25 mM NADPH were monitored for loss of absorbance at 340 nm for 20 seconds at 30-90° C. in 5° C. intervals. […]
The optimum pH was also determined for BdhA by using butyraldehyde as the substrate and NADPH as the cofactor. […]

BdhA (Teth39_1597) [4] = test: Aldehyde reductase enzyme assay with whole cell lysates of E. coli overexpressing BdhA (NAD(P)H oxidation at 340 nm); type: biochemical, Thermoanaerobacter pseudethanolicus 39E; settings: for specific activity with NADPH as a cofactor / BdhA Aldehyde Activities (specific activity): whole cell lysate; for BdhA Aldehyde Activities (specific activity): 60° C.; for BdhA Aldehyde Activities (specific activity) / Specific activity: aerobic
Experimental: Teth39E genomic DNA was isolated using the Wizard Genomic DNA Purification kit (Promega, Madison, Wis.). The bdha gene was PCR amplified using Phusion polymerase (New England Biolabs, Ipswich, Mass.) and cloned into pET30a (EMD Millipore, Billerica, Mass.) behind 6× His- and S-tags. Expression plasmids were transformed in BL21 (DE3) E. coli according to the manufacturer's protocol (Invitrogen, Grand Island, N.Y.). Cells were grown in 50 mL 2×YT medium at 37° C. to OD600 of 0.8-1.0, then induced with 100 μM isopropyl-β-D-thiogalactopyranoside and switched to 30° C. for 16 h. Cells were harvested at 4° C. (3,000×g, 30 min), washed in 50 mL 100 mM sodium phosphate buffer, pH 7 (buffer A), and re-suspended in 5 mL buffer A. Enzyme assays were performed aerobically at 60° C. with whole cell lysates and specific activity was determined by measuring the change in absorbance at 340 nm due to oxidation of NADPH or NADH.
Cell suspension (450 μL) was added to 0.1 mm zirconia beads (300 μL) and vortexed 4×60 sec with 30 sec on ice in between. Samples were centrifuged (14,000×g, 2 min) and the resulting supernatant was used for enzyme assays.
For the enzyme assays, Buffer A (1 mL), 10 mM NAD(P)H (25 μL), and 400 mM aldehyde (50 μL) were added to a 2 mL quartz cuvette, sealed with a butyl stopper, and equilibrated to 60° C. Assays were read at 340 nm (DU 800) for 150 sec to establish a baseline slope before whole cell lysate was added (1-5 μL). Cuvettes were inverted once to mix and read an additional 450 sec. The decrease in absorbance over time was calculated and the baseline slope was subtracted. NAD(P)H concentration was determined using the extinction coefficient (NADH: 6220 M^−1 cm ^−1, NADPH: 6270 M^−1 cm^−1) and specific activity was calculated as the change in μmoles NAD(P)H/min/mg of whole cell lysate protein. Protein concentration was determined using the Bradford assay (Bio-Rad, Hercules, Calif.) with bovine serum albumin as a standard. Specific activity was measured for the pET30a vector (control) and overexpressed Teth39_1597 (BdhA) with acetaldehyde, butyraldehyde, isobutyraldhyde, furfural, and 5-HMF. Furfural was also assayed under anaerobic conditions. BdhA activity was compared to the vector-only control.

Molecule | specific growth rate ([1]; 10 mM furan aldehyde) [h⁻¹] | IC50 ([1]; after 12 h) [mM] | IC50 ([1]; after 24 h) [mM] | expression of Teth39_1597 protein upregulated [2] | specific growth rate ([1]; 20 mM furan aldehyde) [h⁻¹] | optimal temperature for BdhA activity (BdhA (Teth39_1597) [3]; 20 mM butyraldehyde, 0.25 mM NADPH, pH 7.5, 30-90° C.) [°C] | optimum pH (optimal relative activity) (BdhA (Teth39_1597) [3]; butyraldehyde, NADPH, buffers pH 4-10) [pH units] | activity above the vector control using NADH as the cofactor (BdhA (Teth39_1597) [4]; NADH as cofactor) | specific activity with NADPH as a cofactor (BdhA (Teth39_1597) [4]; butyraldehyde as substrate) | activity against butyraldehyde (BdhA (Teth39_1597) [4]; butyraldehyde, NADPH) | specific activity with NADPH as a cofactor (BdhA (Teth39_1597) [4]; expressed in E. coli, various aldehydes) | BdhA Aldehyde Activities (specific activity) (BdhA (Teth39_1597) [4]; substrate 5-HMF, NADPH) | BdhA Aldehyde Activities (specific activity) (BdhA (Teth39_1597) [4]; substrate acetaldehyde, NADPH) | BdhA Aldehyde Activities (specific activity) (BdhA (Teth39_1597) [4]; substrate butyraldehyde, NADPH) | BdhA Aldehyde Activities (specific activity) (BdhA (Teth39_1597) [4]; substrate furfural, NADPH) | BdhA Aldehyde Activities (specific activity) (BdhA (Teth39_1597) [4]; substrate isobutyraldehyde, NADPH) | Specific activity (BdhA (Teth39_1597) [4]; with 5-HMF, NADPH) [U] | Specific activity (BdhA (Teth39_1597) [4]; with furfural, NADPH) [U]
O=Cc1ccc(CO)o1 [5-HMF, 5-hydroxymethyl furfural] | 0.51 ± 0.03 | 20 to 30 | 20 to 30 | – | – | – | – | – | – | – | – | – | – | – | – | – | – | –
O=Cc1ccco1 [furfural] | 0.52 ± 0.03 | 30 | 30 to 40 | approximately 7 fold | 0.43 ± 0.03 | – | – | – | – | – | – | – | – | – | – | – | – | –
B1 | – | – | – | – | – | 75 | 8.0 | No activity was detected | at least 14 μmole/min/mg | approximately 14.58±3.57 μmoles/min/mg | at least 0.5 μmole/min/mg | 10.06 ± 0.80 | 4.54 ± 0.76 | 14.58 ± 3.57 | 4.97 ± 0.17 | 0.63 ± 0.29 | 10.06±0.80 | 4.97±0.17
